Patent US20020146804

T1: mouse procaspase-14
T1 sequence: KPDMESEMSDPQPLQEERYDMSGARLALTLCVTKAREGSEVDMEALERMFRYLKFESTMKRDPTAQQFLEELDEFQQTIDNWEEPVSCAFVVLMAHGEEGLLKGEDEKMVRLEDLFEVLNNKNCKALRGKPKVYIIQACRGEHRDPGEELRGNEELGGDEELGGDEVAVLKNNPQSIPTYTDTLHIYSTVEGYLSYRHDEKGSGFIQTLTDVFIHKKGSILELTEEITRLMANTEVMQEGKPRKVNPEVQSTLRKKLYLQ

T2: mouse procaspase-14
T2 chain: T1 sequence

B1: cytochrome c-activated caspase-7 in S-100 extract of human embryonic kidney 293 cells (protein)
chain: AKPDRSSFVPSLFSKKKKNVTMRSIKTTRDRVPTYQYNMNFEKLGKCIIINNKNFDKVTGMGVRNGTDKDAEALFKCFRSLGFDVIVYNDCSCAKMQDLLKKASEEDHTNAACFACILLSHGEENVIYGKDGVTPIKDLTAHFRGDRCKTLLEKPKLFFIQACRGTELDDGIQADSGPINDTDANPRYKIPVEADFLFAYSTVPGYYSWRSPGRGSWFVQALCSILEEHGKDLEIMQILTRVNDRVARHFESQSDDPHFHEKKQIPCVVSMLTKELYFSQ
B2: cytochrome c-activated caspase-3 in S-100 extract of human embryonic kidney 293 cells (protein)
chain: SGISLDNSYKMDYPEMGLCIIINNKNFHKSTGMTSRSGTDVDAANLRETFRNLKYEVRNKNDLTREEIVELMRDVSKEDHSKRSSFVCVLLSHGEEGIIFGTNGPVDLKKITNFFRGDRCRSLTGKPKLFIIQACRGTELDCGIETDSGVDDDMACHKIPVEADFLYAYSTAPGYYSWRNSKDGSWFIQSLCAMLKQYADKLEFMHILTRVNRKVATEFESFSFDATFHAKKQIPCIVSMLTKELYFYH
B3: cytochrome c-activated caspase-9 in S-100 extract of human embryonic kidney 293 cells (protein)
chain: MDEADRRLLRRCRLRLVEELQVDQLWDALLSRELFRPHMIEDIQRAGSGSRRDQARQLIIDLETRGSQALPLFISCLEDTGQDMLASFLRTNRQAAKLSKPTLENLTPVVLRPEIRKPEVLRPETPRPVDIGSGGFGDVGALESLRGNADLAYILSMEPCGHCLIINNVNFCRESGLRTRTGSNIDCEKLRRRFSSLHFMVEVKGDLTAKKMVLALLELAQQDHGALDCCVVVILSHGCQASHLQFPGAVYGTDGCPVSVEKIVNIFNGTSCPSLGGKPKLFFIQACGGEQKDHGFEVASTSPEDESPGSNPEPDATPFQEGLRTFDQLDAISSLPTPSDIFVSYSTFPGFVSWRDPKSGSWYVETLDDIFEQWAHSEDLQSLLLRVANAVSVKGIYKQMPGCFNFLRKKLFFKTS
B4: cytochrome c-activated caspase-6 in S-100 extract of human embryonic kidney 293 cells (protein)
chain: AFYKREMFDPAEKYKMDHRRRGIALIFNHERFFWHLTLPERRGTCADRDNLTRRFSDLGFEVKCFNDLKAEELLLKIHEVSTVSHADADCFVCVFLSHGEGNHIYAYDAKIEIQTLTGLFKGDKCHSLVGKPKIFIIQACRGNQHDVPVIPLDVVDNQTEKLDTNITEVDAASVYTLPAGADFLMCYSVAEGYYSHRETVNGSWYIQDLCEMLGKYGSSLEFTELLTLVNRKVSQRRVDFCKDPSAIGKKQVPCFASMLTKKLHFFPKSN

Tested on: T1, mouse procaspase-14

| Molecule | processing (cleavage) of 35S labeled procaspase-14, SDS-PAGE and autoradiography |
| --- | --- |
| purified Granzyme B | a significant amount of processing was observed when procaspase-14 was incubated with Granzyme B, caspase-10 and caspase-8, but not with other caspases |
| purified recombinant caspase-8 | a significant amount of processing was observed when procaspase-14 was incubated with Granzyme B, caspase-10 and caspase-8, but not with other caspases |
| purified recombinant caspase-10 | a significant amount of processing was observed when procaspase-14 was incubated with Granzyme B, caspase-10 and caspase-8, but not with other caspases |
| purified recombinant caspase-14 | Some processing was also observed with recombinant caspase-14 itself |

Molecular target: T2, mouse procaspase-14

| Molecule | cleavage/activation of 35S labeled procaspase-14 in S-100 extracts activated by cytochrome c and dATP, SDS-PAGE and autoradiography |
| --- | --- |
| B1 | no cleavage/activation of ^35S labeled procaspase-14 was observed in S-100 extracts activated by cytochrome c and dATP |
| B2 | no cleavage/activation of ^35S labeled procaspase-14 was observed in S-100 extracts activated by cytochrome c and dATP |
| B3 | no cleavage/activation of ^35S labeled procaspase-14 was observed in S-100 extracts activated by cytochrome c and dATP |
| B4 | no cleavage/activation of ^35S labeled procaspase-14 was observed in S-100 extracts activated by cytochrome c and dATP |
